{"source": "paper PMC3985669", "key": {"[1]": {"biological_target": "Hfq (UniProt P0A6X3)", "sequence (P0A6X3 2-102)": "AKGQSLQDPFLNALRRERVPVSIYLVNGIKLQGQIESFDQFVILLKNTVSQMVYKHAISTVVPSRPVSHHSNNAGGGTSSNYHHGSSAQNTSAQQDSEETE", "experiment": "EMSA"}, "[2]": {"biological_target": "Hfq (UniProt P0A6X3)", "experiment": "footprinting"}}, "data": [{"sequence": "GGAUGUAAUCCAUUAGUUUUAUAUUUUACCCAUUUAGGGCUGAUUUAUUACUACACACAGCAGUGCAACAUCUGUCAGUACUUCUGGUGCUUCUAUUUUAGAGGCAGCUGUCAGGUGUGCGAUCAAUAAAAAAAGCGGGGUUUCAUCAUGUUUAAUGAAGUCCAUAGUAUUCAUGGUCAUACAUUAUUGUUGAUCACUAAAUCUUCUUUGCAGGCG [RydC + csgD mRNA215 duplex]", "values": [{"measurement": "binding", "setting": "[1]", "value": "binds"}]}, {"sequence": "GGAUGUAAUCCAUUAGUUUUAUAUUUUACCCAUUUAGGGCUGAUUUAUUACUACACACAGCAGUGCAACAUCUGUCAGUACUUCUGGUGCUUCUAUUUUAGAGGCAGCUGUCAGGUGUGCGAUCAAUAAAAAAAGCGGGGUUUCAUCAUGUUUAAUGAAGUCCAUAGUAUUCAUGGUCAUACAUUAUUGUUGAUCACUAAAUCUUCUUUGCAGGCG [csgD mRNA215]", "values": [{"measurement": "binding", "setting": "[2]", "value": "binds"}, {"measurement": "binding", "setting": "[1]", "value": "binds"}]}]}
